Here are results for two molecules from patent publication US20130034894A1, “NOVEL ALLENE OXIDE SYNTHASE DERIVED FROM LEMNA PAUCICOSTATA” (priority 2010, published 2013).

Data set [1] is described as follows: Activity testing in KODA production (HPLC quantitation of KODA). It is filed as biochemical. The following applies: 0.32 ng protein in 20 μl 9-HPOT reaction solution, room temperature, 10 minutes; relative to AtAOS. The text has this: The allene oxide synthase activity can be determined by allowing a 9-product specific lipoxygenase to act on α-linolenic acid, and then adding a given amount of allene oxide synthase to the enzymatic reaction product 9-hydroperoxylinolenic acid (9-HPOT) to produce KODA, and the KODA produced is quantitatively analyzed by HPLC.
After the SHLpAOS sequence integrated into the pTAC-2 vector by the above method was cleaved with NcoI and XhoI, it was introduced into a commercially available vector pET41a (Novagen) for protein expression to obtain a plasmid pET41a/SHLpAOS for expression of Lemna paucicostata allene oxide synthase. This plasmid was transformed into Escherichia coli strain BL21(DE3) (Novagen). Then, it was inoculated in 3 ml of the LB medium containing 30 mg/l kanamycin, and cultured under shaking overnight at 37° C. and 250 rpm. 100 μl of this culture liquid was added to 10 ml of the LB medium containing the same concentration of kanamycin and 1% glucose and cultured under shaking at 37° C. and 250 rpm for 3-4 hours. […]
In the activity testing in KODA production, 5 mM linolenic acid solution (dissolved in 0.1% Tween 80 solution) was prepared, and reacted with lipoxygenase extracted from rice germ at pH 7 at room temperature for 10 minutes to synthesize 9-hydroperoxylinolenic acid (9-HPOT) solution. […] 10 μl of this solution was analyzed by HPLC. […]

Data set [2] can be described thus: Kinetic analysis of allene oxide synthase (decrease in absorbance at 234 nm, Hanes-Woolf plot). It is filed as biochemical. The note with it: for Kcat / Km / Vmax: substrate 9-HPOT 5-53 μM, 40 mM phosphate buffer pH 7.5, 1% EtOH, 25° C. The method, then:
SHLpAOS obtained from Lemna paucicostata SH strain was subjected to kinetic analysis. Using a reaction mixture comprising 40 mM phosphate buffer (pH 7.5) and 1% EtOH, the reaction was carried out at a temperature of 25° C. The substrate 9-HPOT was tested at the substrate concentration of 5-53 μM. The substrate 9-HOPT was added as an EtOH solution, and the final concentration of EtOH was adjusted to 1%. 100 μl of the reaction mixture was added into a cuvette, and a decrease in absorbance at 234 nm was scanned over time for 1 minute at an interval of 2 seconds using the SmartSpec Plus Spectrophotometer (Bio-Rad). From the A234 determined, the amount of the reaction product was calculated (e=25,000). Kinetic parameters were determined using the Hanes-Woolf plot ([S]/v versus [S] plot). […] It is believed that compared to AtAOS, SHLpAOS is a very useful AOS in the practical production of KODA.

B1: SHLpAOS: allene oxide synthase obtained from the Lemna paucicostata SH strain, expressed in Escherichia coli (SEQ ID NO: 2, 480 aa) (protein, listed as Lemna paucicostata)
chain: MSVSQSDDKAALVPQKTIPGSYGIPFITPLKDRLDFFSNEYQFFQSRVESYGSTIVRLNAPPGPFMAKNPQVIAILDGKSFPVLFDTSKVEKKNIFTGTYMPSTALTGGYRVCAYLDPSEPNHTKIKQLLLNILFNRKDHVIPEFHRAYEKLFDDMDAEIAKSGKFVFNDHNDGAAFEFLGRLFFGVSPSETELGAGGVKDANLWLFSQLCPLMTLGFLPKLLEDLLLHTFPLPPFLFKGKYQAIYKYISSVATDALTMAENLGLSREEAAHNLLFAVCFNSLGGVKVLFPGILRYIAQAGKNLQASLVSEVRSAVSSTGGELTIEALEKMPLTKSVVYESLRLDPPVKYQYGVVKKDMVIESHDRSYEVKAGETLFGYQPFATRDKKIFGPDADNFVAERFIGEEGAKVLRFVVWSNGPETTDPTPVDKQCPGKNLVVLISRLLVAEFFLRYDFFDAEIGAVPLAVKTTITSLTKATTR
In the case of B1, the “Activity in KODA production, higher than the AtAOS protein” value in data set [1] is approximately 7 fold. Moreover, in data set [2] (relative to AtAOS), the “Affinity for 9-HPOT, higher than AtAOS” value is “about 5 fold”; the “Kcat value, higher than in AtAOS” value was “about 2.8 fold”; the “Kcat/Kn value, higher than in AtAOS” value is listed as “about 14 fold”; the “Vmax, higher than AtAOS” value is given as “about 2.8 fold”. For the same molecule, in data set [2], the Kcat was found to be 709.2 ± 44.3 s⁻¹, the Km turned out to be 7.1 ± 1.9 µM and the Vmax was 4.7 ± 0.3 µmol/s.

B2: AtAOS: A. thaliana-derived allene oxide synthase (AOS) protein used as the control, expressed in Escherichia coli (protein, UniProt Q96242 34-518, looked up)
Allene oxide synthase, …: SGSETPDLTVATRTGSKDLPIRNIPGNYGLPIVGPIKDRWDYFYDQGAEEFFKSRIRKYNSTVYRVNMPPGAFIAENPQVVALLDGKSFPVLFDVDKVEKKDLFTGTYMPSTELTGGYRILSYLDPSEPKHEKLKNLLFFLLKSSRNRIFPEFQATYSELFDSLEKELSLKGKADFGGSSDGTAFNFLARAFYGTNPADTKLKADAPGLITKWVLFNLHPLLSIGLPRVIEEPLIHTFSLPPALVKSDYQRLYEFFLESAGEILVEADKLGISREEATHNLLFATCFNTWGGMKILFPNMVKRIGRAGHQVHNRLAEEIRSVIKSNGGELTMGAIEKMELTKSVVYECLRFEPPVTAQYGRAKKDLVIESHDAAFKVKAGEMLYGYQPLATRDPKIFDRADEFVPERFVGEEGEKLLRHVLWSNGPETETPTVGNKQCAGKDFVVLVARLFVIEIFRRYDSFDIEVGTSPLGSSVNFSSLRKASF
For the molecule B2, in data set [2], the Kcat worked out at 255.5 ± 4.8 s⁻¹, the Km was found to be 36.3 ± 1.3 µM and the Vmax turned out to be 1.7 ± 0.03 µmol/s.

What is called Km is the substrate concentration at which the rate is half of its maximum. One may read the Vmax as the rate approached at saturating substrate.
